Test results from patent US20130005646A1 (Novo Nordisk, published 2013).
Starred links: 1 amine or outer side, 2 acyl side, 3 side chain; linkers in the order of their positions; H or OH if unused. Positions of bridges follow the written chain, without caps; N, C: chain ends. *: point of attachment. C20 diacid = O=C(O)CCCCCCCCCCCCCCCCCCC(=O)*; γGlu = O=C(O)[C@H](CCC(=O)[*:2])N[*:1]

T1: human amylin 3(a) receptor (human calcitonin receptor + RAMP-3) (human, UniProt P30988 25-474; O60896 24-148)
T1 sequence (looked up) 1: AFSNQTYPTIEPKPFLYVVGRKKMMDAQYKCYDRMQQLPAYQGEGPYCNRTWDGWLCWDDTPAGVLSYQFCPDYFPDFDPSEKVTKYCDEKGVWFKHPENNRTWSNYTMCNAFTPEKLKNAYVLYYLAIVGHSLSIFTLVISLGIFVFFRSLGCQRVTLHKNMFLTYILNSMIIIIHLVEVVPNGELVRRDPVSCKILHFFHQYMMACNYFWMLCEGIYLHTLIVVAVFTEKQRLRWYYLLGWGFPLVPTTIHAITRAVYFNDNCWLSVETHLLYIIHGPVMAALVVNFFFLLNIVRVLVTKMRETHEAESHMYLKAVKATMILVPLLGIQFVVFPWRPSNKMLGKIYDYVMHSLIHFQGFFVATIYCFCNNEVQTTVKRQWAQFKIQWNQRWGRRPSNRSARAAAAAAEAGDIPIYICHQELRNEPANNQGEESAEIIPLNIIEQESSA
T1 sequence (looked up) 2: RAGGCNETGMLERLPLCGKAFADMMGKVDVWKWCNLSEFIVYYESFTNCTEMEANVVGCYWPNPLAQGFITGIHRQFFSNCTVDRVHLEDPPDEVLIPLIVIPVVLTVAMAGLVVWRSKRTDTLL

T2: human calcitonin (a) receptor (human, UniProt P30988 25-474)
T2 sequence (looked up): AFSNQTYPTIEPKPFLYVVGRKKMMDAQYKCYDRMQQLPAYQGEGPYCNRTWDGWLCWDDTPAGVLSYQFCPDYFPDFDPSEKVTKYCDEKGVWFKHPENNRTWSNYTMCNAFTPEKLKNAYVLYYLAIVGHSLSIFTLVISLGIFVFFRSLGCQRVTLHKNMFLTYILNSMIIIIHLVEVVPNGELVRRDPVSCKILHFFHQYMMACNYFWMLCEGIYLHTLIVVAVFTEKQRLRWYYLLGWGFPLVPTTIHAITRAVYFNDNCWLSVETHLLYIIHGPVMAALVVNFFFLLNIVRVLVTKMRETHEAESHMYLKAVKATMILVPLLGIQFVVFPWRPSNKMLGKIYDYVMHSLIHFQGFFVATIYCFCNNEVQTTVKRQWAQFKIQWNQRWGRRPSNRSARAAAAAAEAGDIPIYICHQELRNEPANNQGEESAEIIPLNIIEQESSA


Key:
[1] = target: T1, human amylin 3(a) receptor (human …); assay: cell-based or functional assay
[2] = target: T2, human calcitonin (a) receptor; assay: cell-based or functional assay

Binder	Amylin receptor human EC50 [1] [nM]	CTa receptor human EC50 [2] [nM]
{C20 diacid-γGlu}-CNTATCATQRLAEFLHHSSNNFGPILPPTNVGSNTY-NH2 (disulfide 1-6; SMILES CC[C@H](C)[C@H](NC(=O)[C@@H]1CCCN1C(=O)CNC(=O)[C@H](Cc1ccccc1)NC(=O)[C@H](CC(N)=O)NC(=O)[C@H](CC(N)=O)NC(=O)[C@H](CO)NC(=O)[C@H](CO)NC(=O)[C@H](Cc1c[nH]cn1)NC(=O)[C@H](Cc1c[nH]cn1)NC(=O)[C@H](CC(C)C)NC(=O)[C@H](Cc1ccccc1)NC(=O)[C@H](CCC(=O)O)NC(=O)[C@H](C)NC(=O)[C@H](CC(C)C)NC(=O)[C@H](CCCNC(=N)N)NC(=O)[C@H](CCC(N)=O)NC(=O)[C@@H](NC(=O)[C@H](C)NC(=O)[C@@H]1CSSC[C@H](NC(=O)CC[C@H](NC(=O)CCCCCCCCCCCCCCCCCCC(=O)O)C(=O)O)C(=O)N[C@@H](CC(N)=O)C(=O)N[C@@H]([C@@H](C)O)C(=O)N[C@@H](C)C(=O)N[C@@H]([C@@H](C)O)C(=O)N1)[C@@H](C)O)C(=O)N[C@@H](CC(C)C)C(=O)N1CCC[C@H]1C(=O)N1CCC[C@H]1C(=O)N[C@H](C(=O)N[C@@H](CC(N)=O)C(=O)N[C@H](C(=O)NCC(=O)N[C@@H](CO)C(=O)N[C@@H](CC(N)=O)C(=O)N[C@H](C(=O)N[C@@H](Cc1ccc(O)cc1)C(N)=O)[C@@H](C)O)C(C)C)[C@@H](C)O) [N-alpha-[(S)-4-Carboxy-4-(19-carboxynonadecanoylamino)butyryl]-[des1,Glu14,His17]-pramlintide]	0.179	0.259
{C20 diacid-γGlu}-ECNTATCATQRLAEFLHHSSNNFGPILPPTNVGSNTY-NH2 (disulfide 2-7; SMILES CC[C@H](C)[C@H](NC(=O)[C@@H]1CCCN1C(=O)CNC(=O)[C@H](Cc1ccccc1)NC(=O)[C@H](CC(N)=O)NC(=O)[C@H](CC(N)=O)NC(=O)[C@H](CO)NC(=O)[C@H](CO)NC(=O)[C@H](Cc1c[nH]cn1)NC(=O)[C@H](Cc1c[nH]cn1)NC(=O)[C@H](CC(C)C)NC(=O)[C@H](Cc1ccccc1)NC(=O)[C@H](CCC(=O)O)NC(=O)[C@H](C)NC(=O)[C@H](CC(C)C)NC(=O)[C@H](CCCNC(=N)N)NC(=O)[C@H](CCC(N)=O)NC(=O)[C@@H](NC(=O)[C@H](C)NC(=O)[C@@H]1CSSC[C@H](NC(=O)[C@H](CCC(=O)O)NC(=O)CC[C@H](NC(=O)CCCCCCCCCCCCCCCCCCC(=O)O)C(=O)O)C(=O)N[C@@H](CC(N)=O)C(=O)N[C@@H]([C@@H](C)O)C(=O)N[C@@H](C)C(=O)N[C@@H]([C@@H](C)O)C(=O)N1)[C@@H](C)O)C(=O)N[C@@H](CC(C)C)C(=O)N1CCC[C@H]1C(=O)N1CCC[C@H]1C(=O)N[C@H](C(=O)N[C@@H](CC(N)=O)C(=O)N[C@H](C(=O)NCC(=O)N[C@@H](CO)C(=O)N[C@@H](CC(N)=O)C(=O)N[C@H](C(=O)N[C@@H](Cc1ccc(O)cc1)C(N)=O)[C@@H](C)O)C(C)C)[C@@H](C)O) [N-alpha-[(S)-4-Carboxy-4-(19-carboxynonadecanoylamino)butyryl]-[Glu1,Glu14,His17]-pramlintide]	0.377	0.657
{C20 diacid-γGlu}-ECNTATCATQRLAEFLHRSSNNFGPILPPTNVGSNTY-NH2 (disulfide 2-7; SMILES CC[C@H](C)[C@H](NC(=O)[C@@H]1CCCN1C(=O)CNC(=O)[C@H](Cc1ccccc1)NC(=O)[C@H](CC(N)=O)NC(=O)[C@H](CC(N)=O)NC(=O)[C@H](CO)NC(=O)[C@H](CO)NC(=O)[C@H](CCCNC(=N)N)NC(=O)[C@H](Cc1c[nH]cn1)NC(=O)[C@H](CC(C)C)NC(=O)[C@H](Cc1ccccc1)NC(=O)[C@H](CCC(=O)O)NC(=O)[C@H](C)NC(=O)[C@H](CC(C)C)NC(=O)[C@H](CCCNC(=N)N)NC(=O)[C@H](CCC(N)=O)NC(=O)[C@@H](NC(=O)[C@H](C)NC(=O)[C@@H]1CSSC[C@H](NC(=O)[C@H](CCC(=O)O)NC(=O)CC[C@H](NC(=O)CCCCCCCCCCCCCCCCCCC(=O)O)C(=O)O)C(=O)N[C@@H](CC(N)=O)C(=O)N[C@@H]([C@@H](C)O)C(=O)N[C@@H](C)C(=O)N[C@@H]([C@@H](C)O)C(=O)N1)[C@@H](C)O)C(=O)N[C@@H](CC(C)C)C(=O)N1CCC[C@H]1C(=O)N1CCC[C@H]1C(=O)N[C@H](C(=O)N[C@@H](CC(N)=O)C(=O)N[C@H](C(=O)NCC(=O)N[C@@H](CO)C(=O)N[C@@H](CC(N)=O)C(=O)N[C@H](C(=O)N[C@@H](Cc1ccc(O)cc1)C(N)=O)[C@@H](C)O)C(C)C)[C@@H](C)O) [N-alpha-[(S)-4-Carboxy-4-(19-carboxynonadecanoylamino)butyryl]-[Glu1,Glu14,His17,Arg18]-pramlintide]	0.174	0.753
{C20 diacid-γGlu}-HHHCHTATCATQRLAEFLHHSSNNFGPILPHTNVGSHTY-NH2 (disulfide 4-9; SMILES CC[C@H](C)[C@H](NC(=O)[C@@H]1CCCN1C(=O)CNC(=O)[C@H](Cc1ccccc1)NC(=O)[C@H](CC(N)=O)NC(=O)[C@H](CC(N)=O)NC(=O)[C@H](CO)NC(=O)[C@H](CO)NC(=O)[C@H](Cc1c[nH]cn1)NC(=O)[C@H](Cc1c[nH]cn1)NC(=O)[C@H](CC(C)C)NC(=O)[C@H](Cc1ccccc1)NC(=O)[C@H](CCC(=O)O)NC(=O)[C@H](C)NC(=O)[C@H](CC(C)C)NC(=O)[C@H](CCCNC(=N)N)NC(=O)[C@H](CCC(N)=O)NC(=O)[C@@H](NC(=O)[C@H](C)NC(=O)[C@@H]1CSSC[C@H](NC(=O)[C@H](Cc2c[nH]cn2)NC(=O)[C@H](Cc2c[nH]cn2)NC(=O)[C@H](Cc2c[nH]cn2)NC(=O)CC[C@H](NC(=O)CCCCCCCCCCCCCCCCCCC(=O)O)C(=O)O)C(=O)N[C@@H](Cc2c[nH]cn2)C(=O)N[C@@H]([C@@H](C)O)C(=O)N[C@@H](C)C(=O)N[C@@H]([C@@H](C)O)C(=O)N1)[C@@H](C)O)C(=O)N[C@@H](CC(C)C)C(=O)N1CCC[C@H]1C(=O)N[C@@H](Cc1c[nH]cn1)C(=O)N[C@H](C(=O)N[C@@H](CC(N)=O)C(=O)N[C@H](C(=O)NCC(=O)N[C@@H](CO)C(=O)N[C@@H](Cc1c[nH]cn1)C(=O)N[C@H](C(=O)N[C@@H](Cc1ccc(O)cc1)C(N)=O)[C@@H](C)O)C(C)C)[C@@H](C)O)	1.03	0.484
{C20 diacid-γGlu}-HHHCNTATCATQRLAEFLHHSSNNFGPILPHTNVGSHTY-NH2 (disulfide 4-9; SMILES CC[C@H](C)[C@H](NC(=O)[C@@H]1CCCN1C(=O)CNC(=O)[C@H](Cc1ccccc1)NC(=O)[C@H](CC(N)=O)NC(=O)[C@H](CC(N)=O)NC(=O)[C@H](CO)NC(=O)[C@H](CO)NC(=O)[C@H](Cc1c[nH]cn1)NC(=O)[C@H](Cc1c[nH]cn1)NC(=O)[C@H](CC(C)C)NC(=O)[C@H](Cc1ccccc1)NC(=O)[C@H](CCC(=O)O)NC(=O)[C@H](C)NC(=O)[C@H](CC(C)C)NC(=O)[C@H](CCCNC(=N)N)NC(=O)[C@H](CCC(N)=O)NC(=O)[C@@H](NC(=O)[C@H](C)NC(=O)[C@@H]1CSSC[C@H](NC(=O)[C@H](Cc2c[nH]cn2)NC(=O)[C@H](Cc2c[nH]cn2)NC(=O)[C@H](Cc2c[nH]cn2)NC(=O)CC[C@H](NC(=O)CCCCCCCCCCCCCCCCCCC(=O)O)C(=O)O)C(=O)N[C@@H](CC(N)=O)C(=O)N[C@@H]([C@@H](C)O)C(=O)N[C@@H](C)C(=O)N[C@@H]([C@@H](C)O)C(=O)N1)[C@@H](C)O)C(=O)N[C@@H](CC(C)C)C(=O)N1CCC[C@H]1C(=O)N[C@@H](Cc1c[nH]cn1)C(=O)N[C@H](C(=O)N[C@@H](CC(N)=O)C(=O)N[C@H](C(=O)NCC(=O)N[C@@H](CO)C(=O)N[C@@H](Cc1c[nH]cn1)C(=O)N[C@H](C(=O)N[C@@H](Cc1ccc(O)cc1)C(N)=O)[C@@H](C)O)C(C)C)[C@@H](C)O)	0.272	0.198
{C20 diacid-γGlu}-HHHCHTATCATQRLAEFLHHSSNNFGPILPPTNVGSNTY-NH2 (disulfide 4-9; SMILES CC[C@H](C)[C@H](NC(=O)[C@@H]1CCCN1C(=O)CNC(=O)[C@H](Cc1ccccc1)NC(=O)[C@H](CC(N)=O)NC(=O)[C@H](CC(N)=O)NC(=O)[C@H](CO)NC(=O)[C@H](CO)NC(=O)[C@H](Cc1c[nH]cn1)NC(=O)[C@H](Cc1c[nH]cn1)NC(=O)[C@H](CC(C)C)NC(=O)[C@H](Cc1ccccc1)NC(=O)[C@H](CCC(=O)O)NC(=O)[C@H](C)NC(=O)[C@H](CC(C)C)NC(=O)[C@H](CCCNC(=N)N)NC(=O)[C@H](CCC(N)=O)NC(=O)[C@@H](NC(=O)[C@H](C)NC(=O)[C@@H]1CSSC[C@H](NC(=O)[C@H](Cc2c[nH]cn2)NC(=O)[C@H](Cc2c[nH]cn2)NC(=O)[C@H](Cc2c[nH]cn2)NC(=O)CC[C@H](NC(=O)CCCCCCCCCCCCCCCCCCC(=O)O)C(=O)O)C(=O)N[C@@H](Cc2c[nH]cn2)C(=O)N[C@@H]([C@@H](C)O)C(=O)N[C@@H](C)C(=O)N[C@@H]([C@@H](C)O)C(=O)N1)[C@@H](C)O)C(=O)N[C@@H](CC(C)C)C(=O)N1CCC[C@H]1C(=O)N1CCC[C@H]1C(=O)N[C@H](C(=O)N[C@@H](CC(N)=O)C(=O)N[C@H](C(=O)NCC(=O)N[C@@H](CO)C(=O)N[C@@H](CC(N)=O)C(=O)N[C@H](C(=O)N[C@@H](Cc1ccc(O)cc1)C(N)=O)[C@@H](C)O)C(C)C)[C@@H](C)O)	0.286	0.801
